T1: PBP1A, purified (Escherichia coli, UniProt P02918 1-850, NT647 RED-NHS dye on amines (PBP1A was the labelled protein in all MST assays))
T1 construct: Bifunctional peptidoglycan synthase PBP1A of E. coli; also called fl-PBP1A (fluorescently labelled); source: purified as described previously in Born et al (2006)
T1 sequence (looked up): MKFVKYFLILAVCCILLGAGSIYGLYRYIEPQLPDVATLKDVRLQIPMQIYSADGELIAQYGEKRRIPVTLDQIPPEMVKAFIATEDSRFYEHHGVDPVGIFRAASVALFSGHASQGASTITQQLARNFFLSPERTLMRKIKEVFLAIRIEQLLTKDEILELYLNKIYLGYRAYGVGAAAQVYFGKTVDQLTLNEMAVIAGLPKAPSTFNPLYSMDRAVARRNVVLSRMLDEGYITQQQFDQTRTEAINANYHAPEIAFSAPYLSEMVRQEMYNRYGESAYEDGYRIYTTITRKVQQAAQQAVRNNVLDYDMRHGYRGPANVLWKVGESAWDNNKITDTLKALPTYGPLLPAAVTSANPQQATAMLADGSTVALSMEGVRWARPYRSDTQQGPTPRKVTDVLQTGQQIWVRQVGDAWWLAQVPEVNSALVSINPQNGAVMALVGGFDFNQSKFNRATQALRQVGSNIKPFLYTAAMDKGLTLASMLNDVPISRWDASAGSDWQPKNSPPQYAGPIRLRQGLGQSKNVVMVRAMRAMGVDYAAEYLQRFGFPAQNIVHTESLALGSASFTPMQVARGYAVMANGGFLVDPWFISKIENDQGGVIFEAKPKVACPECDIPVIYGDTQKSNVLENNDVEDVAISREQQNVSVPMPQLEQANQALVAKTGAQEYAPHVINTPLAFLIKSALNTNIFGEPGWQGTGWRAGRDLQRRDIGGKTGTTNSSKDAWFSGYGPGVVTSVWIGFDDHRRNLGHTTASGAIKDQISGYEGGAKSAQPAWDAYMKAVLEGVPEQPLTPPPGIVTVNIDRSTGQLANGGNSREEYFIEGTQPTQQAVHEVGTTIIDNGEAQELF

B1: LpoA, purified (natural protein, Escherichia coli, UniProt P45464 27-678, looked up)
chain: CGTHTPDQSTAYMQGTAQADSAFYLQQMQQSSDDTRINWQLLAIRALVKEGKTGQAVELFNQLPQELNDAQRREKTLLAVEIKLAQKDFAGAQNLLAKITPADLEQNQQARYWQAKIDASQGRPSIDLLRALIAQEPLLGAKEKQQNIDATWQALSSMTQEQANTLVINADENILQGWLDLQRVWFDNRNDPDMMKAGIADWQKRYPNNPGAKMLPTQLVNVKAFKPASTNKIALLLPLNGQAAVFGRTIQQGFEAAKNIGTQPVAAQVAAAPAADVAEQPQPQTVDGVASPAQASVSDLTGEQPAAQPVPVSAPATSTAAVSAPANPSAELKIYDTSSQPLSQILSQVQQDGASIVVGPLLKNNVEELLKSNTPLNVLALNQPENIENRVNICYFALSPEDEARDAARHIRDQGKQAPLVLIPRSSLGDRVANAFAQEWQKLGGGTVLQQKFGSTSELRAGVNGGSGIALTGSPITLRATTDSGMTTNNPTLQTTPTDDQFTNNGGRVDAVYIVATPGEIAFIKPMIAMRNGSQSGATLYASSRSAQGTAGPDFRLEMEGLQYSEIPMLAGGNLPLMQQALSAVNNDYSLARMYAMGVDAWSLANHFSQMRQVQGFEINGNTGSLTANPDCVINRNLSWLQYQQGQVVPVS
modifications: where used as the labelled protein in MST: NT647 RED-Maleimide dye on cysteines
notes: called LpoA^sol in the TPase methods; also called LpoA^sol; fl-LpoA; source: purified as described previously in Jean et al (2014)
B2: PBP4, native, purified (enzyme, Escherichia coli, UniProt P24228 21-477, looked up)
chain: ANVDEYITQLPAGANLALMVQKVGASAPAIDYHSQQMALPASTQKVITALAALIQLGPDFRFTTTLETKGNVENGVLKGDLVARFGADPTLKRQDIRNMVATLKKSGVNQIDGNVLIDTSIFASHDKAPGWPWNDMTQCFSAPPAAAIVDRNCFSVSLYSAPKPGDMAFIRVASYYPVTMFSQVRTLPRGSAEAQYCELDVVPGDLNRFTLTGCLPQRSEPLPLAFAVQDGASYAGAILKDELKQAGITWSGTLLRQTQVNEPGTVVASKQSAPLHDLLKIMLKKSDNMIADTVFRMIGHARFNVPGTWRAGSDAVRQILRQQAGVDIGNTIIADGSGLSRHNLIAPATMMQVLQYIAQHDNELNFISMLPLAGYDGSLQYRAGLHQAGVDGKVSAKTGSLQGVYNLAGFITTASGQRMAFVQYLSGYAVEPADQRNRRIPLVRFESRLYKDIYQNN
modifications: where used as the labelled protein in MST: NT647 RED-NHS dye on amines
notes: PBP4 (DD-endopeptidase) of E. coli, 'native PBP4' purified after Kishida et al (2006); Untagged ('native'); source: E. coli BL21 (λDE3), purified (HiTrap Q, hydroxyapatite, Superdex 200)

Experiments:
Settings in all cases: both partners purified
PBP1A, purified = biological target: T1, PBP1A, purified; experiment: MST; titration: NT647-labelled protein against a two-fold serial dilution (16 steps) of unlabelled ligand; 25 mM HEPES/NaOH, 150 mM NaCl, 0.05% Triton X-100, pH 7.5; Monolith NT.115; apparent constants; for NlpI with itself: dimer to monomers
[1] = biological target: T2, NlpI, soluble version lacking its membrane anchor (Escherichia coli, UniProt P0AFB1 20-294, where used as fl-NlpI in MST: NT647 RED-NHS dye on amines); experiment: as above
T2 construct: Outer membrane lipoprotein NlpI of E. coli, soluble version lacking its membrane anchor; Homodimer by AUC; also called fl-NlpI (fluorescently labelled); His-NlpI; source: E. coli BL21 (λDE3), purified (HisTrap HP, Superdex 200)

[2] = biological target: T3, pre-formed NlpI-PBP4 complex (Escherichia coli, UniProt P0AFB1 20-294; P24228 21-477); experiment: MST; fixed ligand concentration assay: labelled MepS, LpoA or PBP1A with fixed unlabelled NlpI, PBP4, PBP7 or pre-formed complexes (NlpI 3 μM with 30 μM PBP4 or PBP7 for fl-MepS and fl-LpoA; PBP4 0.5 μM with NlpI 1 μM for fl-PBP1A); FNorm, or raw fluorescence for LpoA
T3 construct: NlpI of E. coli, soluble version lacking its membrane anchor, as the chain of m1; PBP4 of E. coli, native, as the chain of m5; NlpI 3 μM with excess PBP4 30 μM for assays with labelled MepS or LpoA; PBP4 0.5 μM with NlpI 1 μM for assays with labelled PBP1A; also called PBP4‐NlpI complex; PBP4‐NlpI; source: pre-formed from purified NlpI and purified PBP4, on ice for 10 min

LpoA, purified = biological target: B1; experiment: MST; titration: NT647-labelled protein against a two-fold serial dilution (16 steps) of unlabelled ligand; 25 mM HEPES/NaOH, 150 mM NaCl, 0.05% Triton X-100, pH 7.5; Monolith NT.115; apparent constants; for NlpI with itself: dimer to monomers
PBP4, native, purified = biological target: B2; experiment: MST + pull-down; endopeptidases tested against each other, 'a combination of MST and Ni2+-NTA pull-down assays'; all combinations of MepM, MepS, PBP4, PBP7

T2 sequence (P0AFB1 20-294): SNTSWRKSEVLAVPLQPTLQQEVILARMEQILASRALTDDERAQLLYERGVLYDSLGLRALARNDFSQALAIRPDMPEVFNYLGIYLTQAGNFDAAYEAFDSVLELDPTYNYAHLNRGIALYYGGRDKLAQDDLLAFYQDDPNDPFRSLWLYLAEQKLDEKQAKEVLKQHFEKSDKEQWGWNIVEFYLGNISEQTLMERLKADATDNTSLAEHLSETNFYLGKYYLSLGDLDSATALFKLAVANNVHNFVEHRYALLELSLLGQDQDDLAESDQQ
T3 sequence (P0AFB1 20-294, one chain of several): as the sequence (P0AFB1 20-294) above

Binder	Kd (PBP1A, purified)	Kd (LpoA, purified)	further results
MepS(C68A), catalytically inactive MepS (enzyme, Escherichia coli, UniProt P0AFV4 27-188, looked up, Peptidoglycan endopeptidase MepS of E. coli with C68A; the results call it MepS; source: E. coli BL21 (λDE3), purified (HisTrap HP, Superdex 200)) CSANNTAKNMHPETRAVGSETSSLQASQDEFENLVRNVDVKSRIMDQYADWKGVRYRLGGSTKKGIDASGFVQRTFREQFGLELPRSTYEQQEMGKSVSRSNLRTGDLVLFRAGSTGRHVGIYIGNNQFVHASTSSGVIISSMNEPYWKKRYNEARRVLSRS	91 nM	–	–
MepS (enzyme, Escherichia coli, UniProt P0AFV4 27-188, looked up, where used as fl-MepS in MST: NT647 RED-NHS dye on amines, Peptidoglycan endopeptidase MepS of E. coli, from pET21b-MepS-His (Singh et al, 2012); Construct from Singh et al, 2012; The methods list only MepS(C68A) as an unlabelled MST ligand; wild-type MepS is the labelled protein; also called fl-MepS (fluorescently labelled); MepS-His; source: E. coli BL21 (λDE3), purified (HisTrap HP, Superdex 200)) CSANNTAKNMHPETRAVGSETSSLQASQDEFENLVRNVDVKSRIMDQYADWKGVRYRLGGSTKKGIDCSGFVQRTFREQFGLELPRSTYEQQEMGKSVSRSNLRTGDLVLFRAGSTGRHVGIYIGNNQFVHASTSSGVIISSMNEPYWKKRYNEARRVLSRS	–	–	Kd [1]: 145 nM
B1	–	–	binding result [2]: binds
B2	106 nM	315 nM	–
PBP7, purified (enzyme, Escherichia coli, UniProt P0AFI5 26-310, looked up, where used as the labelled protein in MST: NT647 RED-NHS dye on amines, PBP7 (DD-endopeptidase) of E. coli; source: E. coli BL21 (λDE3), purified (HisTrap HP, Superdex 200)) KTAAATTASQPEIASGSAMIVDLNTNKVIYSNHPDLVRPIASISKLMTAMVVLDARLPLDEKLKVDISQTPEMKGVYSRVRLNSEISRKDMLLLALMSSENRAAASLAHHYPGGYKAFIKAMNAKAKSLGMNNTRFVEPTGLSVHNVSTARDLTKLLIASKQYPLIGQLSTTREDMATFSNPTYTLPFRNTNHLVYRDNWNIQLTKTGFTNAAGHCLVMRTVINNKPVALVVMDAFGKYTHFADASRLRTWIETGKVMPVPAAALSYKKQKAAQMAAAGQTAQND	101 nM	217 nM	EC50 [1]: 422 nM; binding result (PBP4, native, purified): binds

From article PMC7049810, “Outer membrane lipoprotein NlpI scaffolds peptidoglycan hydrolases within multi‐enzyme complexes in Escherichia coli” (The EMBO Journal, 2020)
